In the RNAGym collection of RNA variant scans (doi:10.1093/nar/gkz1192):

B1: CPEB3 Ribozyme (parent)
chain: UAACAGGGGGCCACAGCAGAAGCGUUCACGUCGCAGCCCCUGUCAGAUUCUGGUGAAUCUGCGAAUUCUGCUGUAUAUCUC

Variants of: B1
Test: self-cleavage, relative activity (ratio to wild type); higher = more cleavage; in vitro, sequencing
Summary of the method: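 Relative activity was defined as the cleaved/total read fraction for a variant divided by the same fraction for the unmutated ribozyme. CPEB3 self-cleaving ribozyme libraries were made by rounds of error-prone PCR, barcoded, and transcribed in vitro with T7 RNA polymerase for 5 hours at 37°C, and cleavage ran through transcription plus a 15 min DNase I step before EDTA. Illumina sequencing of template-switched reverse transcripts gave the reads, and DNA sequencing mapped the barcodes. Averages come from three batches, using variants with at least 5 reads.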

Point of comparison: A20U A56U, self-cleavage 0.25. Against it:
- A21G G42A — the same, 0.25
- A21G G42U — higher, 0.37
- A20G U31C — higher, 0.56
- A20G U31A — higher, 0.37
- A20G U31G — higher, 0.58
- A20U A47G — higher, 0.33
- A20G U41G — higher, 0.35
- A20G U41C — higher, 0.89
- A20G U41A — higher, 0.28
- A21G C50U — higher, 0.62
- A21G C50A — higher, 0.57
- A20U C44A — higher, 0.27
- A21G G52A — higher, 0.72
- A21C A64C — lower, 0.17
- A21C A64U — lower, 0.07
- A21G G70A — lower, 0.22
- A20U C79G — higher, 0.37
- A21C A45U — lower, 0.13
- A21C A45G — higher, 0.41
- A20U A77C — the same, 0.25
- A20U A77G — higher, 0.39
- A20U A77U — higher, 0.28
- A21G U26C — higher, 0.29
- A21G U26A — higher, 0.52
- A21G U26G — the same, 0.25
- A20G U60C — higher, 0.34
- A20G U60A — higher, 0.35
- A20U A21U — higher, 0.29
- A20U A21G — lower, 0.23
- A21G A77C — higher, 0.63
- A21G A77G — higher, 0.66
- A21G A77U — higher, 0.71
- A21G U31G — higher, 0.41
- A21G U31C — lower, 0.24
- A21G U31A — higher, 0.33
- A20U C68U — higher, 0.28
- A21G G22A — lower, 0.17
- A21G C44U — higher, 0.26
- A21G C44A — lower, 0.18
- A20G U72A — higher, 0.46
- A20G U72G — higher, 0.63
- A20G U72C — higher, 0.84
- A20U U43C — higher, 0.29
- A20U U43A — higher, 0.45
- A21G U48A — higher, 0.35
- A21G U48C — higher, 0.3
- A21G U48G — higher, 0.34
- A20U U66A — higher, 0.3
- A20U U66C — higher, 0.28
- A20U U66G — higher, 0.26
- A21G U25A — lower, 0.24
- A21G U25G — higher, 0.34
- A21G U25C — higher, 0.29
- A21C A56G — higher, 0.3
- A21C A56U — lower, 0.16
- A20U G30U — lower, 0.24
- A20U U41A — higher, 0.3
- A20U U41C — higher, 0.28
- A20U U41G — lower, 0.23
- A21G G63U — higher, 0.61
- A20G U25A — higher, 0.27
- A20G U25G — higher, 0.41
- A20G U25C — higher, 0.3
- A20U G24U — lower, 0.08
- A20U G24A — lower, 0.09
- A20U G24C — higher, 0.4
- A20U A35U — lower, 0.22
- A20U A35G — higher, 0.87
- A20U G33C — lower, 0.15
- A20U — higher, 0.33
- A21G C34G — lower, 0.2
- A20U C40A — lower, 0.23
- A20U C40G — higher, 0.27
- A20U C40U — higher, 0.34
- A21C U54A — lower, 0.17
- A21C U54C — lower, 0.23
- A21C U76A — lower, 0.1
- A20G G73A — higher, 1.22
- A20G G73U — higher, 1.19
- A20U U69G — lower, 0.21
- A20U U69C — lower, 0.15
- A20U U69A — lower, 0.22
- A21G U43C — higher, 0.33
- A21G U43A — higher, 0.75
- A21G U43G — lower, 0.14
- A20U U49A — lower, 0.2
- A20U U49C — higher, 0.3
- A21G A28C — higher, 0.3
- A21G A28G — higher, 0.35
- A21G A28U — higher, 0.38
- A20U U72G — lower, 0.13
- A20U U72C — higher, 0.34
- A20U U72A — the same, 0.25
- A20U U78A — higher, 0.43
- A20U U78G — higher, 0.26
- A20U U78C — higher, 0.32
- A20U C71A — lower, 0.17
- A21G G53A — higher, 0.58
- A20G U54G — higher, 0.52
- A20G U54A — higher, 0.97
- A20G U54C — higher, 0.88
- A20U G42A — higher, 0.64
- A20U G42U — lower, 0.13
- A21G C38G — higher, 0.26
- A21G C38U — higher, 0.57
- A21G C38A — higher, 0.33
- A20U U54A — higher, 0.29
- A20U U54C — higher, 0.31
- A20U U54G — higher, 0.26
- A21C — lower, 0.24
- A21G — higher, 0.64
- A20U C59G — lower, 0.24
- A20U G73A — higher, 0.67
- A21G A65G — higher, 0.28
- A21G A65C — lower, 0.12
- A21G A65U — lower, 0.24
- A21G C23A — higher, 0.32
- A21G C23U — lower, 0.2
- A21G C23G — higher, 0.37
- A20U C27G — lower, 0.19
- A20U C27A — higher, 0.27
- A20U C27U — lower, 0.18
- A21G A57G — higher, 0.49
- A21G A57U — higher, 0.38
- A21C A35G — higher, 0.39
- A20G U26C — higher, 0.37
- A20G U26G — higher, 0.36
- A20G U26A — higher, 0.77
- A21C U26A — lower, 0.23
- A21C G73A — higher, 0.35
- A20U U25A — higher, 0.26
- A20U U25G — lower, 0.15
- A20U U25C — higher, 0.31
- A21G A47G — higher, 0.42
- A21G A47U — higher, 0.36
- A21G A35C — lower, 0.13
- A21G A35G — higher, 1.16
- A21G A35U — higher, 0.27
- A20U A56C — higher, 0.54
- A20U A56G — the same, 0.25
- A21C U49G — lower, 0.11
- A20U C62U — lower, 0.15
- A21G C71A — lower, 0.07
- A21G C71U — higher, 0.32
- A20G U48C — higher, 0.4
- A20G U48G — higher, 0.31
- A20G U48A — higher, 0.38
- A21C U51A — lower, 0.15
- A21C U51C — lower, 0.19
- A21C U58A — lower, 0.16
- A20U U31C — higher, 0.26
- A20U U31G — lower, 0.23
- A20U U31A — lower, 0.24
- A21C G53U — lower, 0.15
- A20G U66C — higher, 0.37
- A20G U66A — higher, 0.33
- A20G U66G — higher, 0.37
- A20G U67A — higher, 0.55
- A20G U67C — higher, 1.01
- A20G U67G — the same, 0.25
- A21G C81U — higher, 0.92
- A20U U51C — higher, 0.32
- A20U U51A — the same, 0.25
- A21G A64G — higher, 0.42
- A21G A64C — higher, 0.37
- A21G A64U — higher, 0.26
